Assay results from the Human Domainome abundance scans (Beltran et al. 2025).

B1: RUN and FYVE domain-containing protein 1, residues 639 to 698; numbered along this chain, Q96T51 (parent)
chain: WLKDDEATHCRQCEKEFSISRRKHHCRNCGHIFCNTCSSNELALPSYPKPVRVCDSCHTL

Variants of: B1
Assay: abundance fitness (aPCA) (normalised: wild type 0, dead -1); higher = more abundant; growth selection in yeast, the domain comes from the species named
Settings: Homo sapiens

Abundance fitness of substitutions, site by site:
H31: W -0.017 | D -0.126 | T -0.423 | M -0.113 | N -0.237 | R -0.142 | V -0.626 | G 0.08 | Y -0.106 | P -0.711 | C -0.445 | S -0.225 | K -0.143 | E -0.277 | F 0.027 | A -0.204 | Q -0.019 | L -0.012 | I -0.113
C29: I -1.11 | W -1.03 | S -1.01 | D -0.709 | A -1.03 | E -0.666 | P -0.835 | Y -0.852 | H -1.25 | F -0.871 | N -0.942 | K -1.11 | Q -1.23 | M -0.906 | T -0.818 | V -0.904 | G -1 | L -0.875
R27: E 0.085 | C -0.067 | M 0.019 | G 0.153 | D 0.072 | T 0.095 | A 0.189 | W -0.144 | N 0 | L 0.069 | H 0.316 | P 0.219 | V -0.262 | K 0.04 | F 0.176 | Q 0.112 | S -0.003 | I -0.077
N28: C 0.058 | F -0.177 | H 0.05 | A -0.046 | R -0.176 | Q -0.147 | D -0.19 | S -0.099 | T -0.306 | G -0.1 | M -0.252 | K -0.202 | Y -0.283 | I -0.261 | W -0.13 | V -0.285 | L -0.342 | P -0.244
F33: I -0.171 | K -0.602 | M -0.378 | N -0.488 | P -0.888 | T -0.238 | R -0.6 | H -0.458 | Y 0.005 | V 0.076 | S -0.47 | Q -0.38 | C 0.059 | G -0.537 | W -0.455 | E -0.576 | D -0.573
I32: F 0.042 | M 0.161 | N -0.05 | V 0.04 | A -0.1 | D -0.079 | C -0.105 | G 0.195 | S 0.013 | K 0.134 | P 0.109 | E 0.074 | T 0.007 | H -0.24 | L -0.056 | Q 0.045
C34: A -0.659 | I -0.71 | G -0.608 | H -0.44 | M -0.398 | K -0.493 | L -0.708 | F -0.853 | D -0.577
G30: P -0.754 | N -1.04 | M -0.264 | T -0.77 | S -0.503 | E -0.239 | R -0.428 | A -0.392 | D -0.414 | V -0.764 | C -0.453 | F -0.945 | H -0.428 | Q -0.326 | K -1.17 | Y -0.56 | W -0.235
C26: A -0.694 | F -0.89 | Y -0.77 | K -0.677 | E -0.655 | I -0.866 | M -0.76 | H -0.628 | W -0.748 | R -0.804 | G -0.709 | S -0.636 | T -0.832 | N -0.418 | Q -0.855 | P -0.508 | V -0.913 | D -0.794 | L -0.763
H25: K 0.012 | T -0.118 | Y 0.097 | F -0.045 | P -0.065 | N -0.311 | M 0.051 | S 0.07 | E -0.02 | C -0.169 | W 0.128 | Q 0.169 | R 0.151 | V 0.044 | I -0.13 | D -0.176
